Assay results taken from US20110293610A1 (published 2011).
Positions count from the first letter of the chain named.

B1: I079B12 (scFv)
scFv: EVQLVQSRGGVVQPGRSLRLSCAASGLTFSSYGMHWVRQAPGKGLEWVAVISYDGRNKYYADSVKGRFTTSRDNSKNTLYLQMNSLRAEDTAVYYCAKWTSSGAFDIWGRGTLVTVSSGGGGSGGGGSGGGGSDIQMTQSPSTLSASIGDRVTITCRASEGIYHWLAWYQQKPGKAPKLLIYKASSLASGAPSRFSGSGSGTDFTLTISSLQPDDFATYYCHQYSNYPLTFGGGTKLEIKR
B2: I082D07 (scFv)
scFv: B1 scFv with H222Q
B3: I080G09 (scFv)
scFv: QVQLVQSGAEVKKPGASVRVSCKSSGYTFTNYGISWVRQAPGQGLEWMGWISNNNGKTYYAQKVQGRVTMTTDTSTSTDYMELRGLRSDDTAIYYCARDNGGGTIGFDYWGQGTLVTVSSGGGGSGGGGSGGGGSAQSVLTQPPSVSGAPGQRVTISCTGSSSNIGADYDVHWYQLLPGTAPKLLIYGNTNRPSGVPDRFSGSKSGTSASLTIAGLQAEDEADYYCQSYDSSLSGSVVFGGGTKLTVLG
B4: I082A05 (scFv)
scFv: QVQLQQSGGGVVQPGRSLRLSCAASGFTYSSYAMHWVRQAPGKGLEWVAVISYDGSIKYYADSVKGRFTISRDNSKNTLYLQMNSLRAEDTAVYYCARDLDFDYWGKGTLVTVSSGGGGSGGGGSGGGGSQSVLTQPPSVSAAPGQKVTISCSGSTSNIGNNYVSWYQQHPGKAPKFMIYDVSKRPSGVSNRFSGSKSGNTASLTISGVQAEDEADYYCSSYTSASTVIFGGGTKLTVLG
B5: I080A08 (scFv)
scFv: QVTLKESGGDLVQPGGSLRLSCAASGLTFMSYAMTWVRQAPGKGLEWVSSISGSGDNTYYGDSVRGRFTISRDNSKNTLFLQLNSLRAEDTAFYYCAKVHSTGYAFENWGRGTLVTVSSGGGGSGGGGSGGGGSAQSVLTQPPSVSGAPGQRVTISCTGSSSNIGAGYNVHWYQQLPGTAPRLLISSNTNRPSGVPDRFSGSKSGTSASLAITGLQAEDEADYYCQSYDSSLSGFVFGTGTKVTVLG
B6: I080E05 (scFv)
scFv: EVQLVQSGAAVKKPGASVKVSCKASGYTFTTYYIHWVRQAPGQGLEWMGIINPVNGNTIYAQKFQGRVTMTRDTSTGTVNMELSSLRSEDTAVFYCVREGGGDAYDVAPYYFDYWGQGTLVTVSSGGGGSGGGGSGGGGSAQAVLTQPSSVSGAPGQRVTISCTGSSSNIGDGYDVHWYQQLPGTAPKLLIYGNSHRPSGVPDRFSGSKSDTSASLAITGLQVEDEADYFCHSYDSSVSGWIFGGGTKLTVLG
B7: I080B01 (scFv)
scFv: QVQLVQSGAEVKKPGASVKVSCKASGYTFTNYYMHWVRQAPGQGLEWMGIINPRDVSTTYAQKFQGRATMTRDTSTSTVYMELNSLRSEDTAVYYCAREYSGYHYVEGGSYAMDVWGQGTMVTVSSGGGGSGGGGSGGGGSALSYVLTQPPSASGTPGQRVTITCSGSSSNIGNYYVNWYQQVSGTAPKLIIYRNNQRPSGVPDRFSGSKSGASASLAISGLRSEDEADYFCAAWDDSLREFVFGTGTKVTVLG
B8: I079F06 (scFv)
scFv: QVQLVESGGGLVQPGGSLRLSCAASGFTFSSYWMSWVRQAPGKGLEWVANIKQDGSEKYYVDSVKGRFTISRDNAKNSLYLQMNSLRAEDTAVYYCARDNLHAAFDIWGRGTLVTVSGGGGGSGGGGSGGGGSDIQMTQSPSTLSASIGDRVTITCRASEGIYHWLAWYQQKPGKAPKLLIYKASSLASGAPSRFSGSGSGTDFTLTISSLQPDDFATYYCQQYSNYPLTFGGGTKLEIKR
B9: I079F08 (scFv)
scFv: QMQLVQSGGGVVQPGRSLRLSCAASGFTFSSYGMHWVRQAPGKGLEWVAVISYDGSIKYYADSVKGRFTISRDNSKNTLYLQMNSLRAEDTAVYYCARYYYHSSGSDAFDIWGQGTLVTVPSGGGGSGGGGSGGGGSQSVLTQPPSASGTPGQRVTISCSGSSSNIGSNTVNWYQRLPGAAPQLLIYNNNQRPSGVPDRFSGSKSGTSASLAISGLQSEDEADYYCAAWDDSLNGWVFGGGTKLTVLG
B10: I082G01 (scFv)
scFv: QMQLVQSGAEVKKPGASVKVSCKASGYTFTSYYMHWVRQAPGQGLEWMGLVHPNDGSVNYAQKFKGRVTMTRDTSTSTVYMELSSLRSDDTAVYYCARDRGSGWPNWYFDLWGQGTLVTVSSGGGGSGGGGSGGGGSDIQMTQSPSTLSASIGDRVTITCRASEGIYHWLAWYQQKPGKAPKLLIYKASSLASGAPSRFSGSGSGTDFTLTISSLQPDDFATYYCQQYSNYPLTFGGGTKLEIKH
B11: I084C11 (scFv)
scFv: GVQLEESGAEVKKPGASVKVSCKASGYTFTGYYMHWVRQAPGQGLEWMGWINPNSGGTNYAQKFQGRVTMTRDTSISTAYMELSRLRSDDTAVYYCARGNAWGAFDIWGRSTLVTVSSGGGGSGGGGSGGGGSQSVLTQPASVSGSPGQSITISCTGTSSDVGGYNYVSWYQQHPGKAPKLMIYEGSKRPSGVSNRFSGSKSGNTASLTVSGLQAEDEADYYCSSYTTRSTRVFGGGTKLTVLG
B12: I084B02 (scFv)
scFv: QVQLVQSGGGLVQPGGSLRLSCAASGFTFSSYEMNWVRQAPGKGLEWVSYISSSGSTTYYADSVKGRFTISRDNAKNSLYLQMNSLRAEDTAVYYCARDTTDYWGQGTLVTVSSGGGGSGGGGSGGGGSDIVMTQSPSTLSASVGDRVTITCRASQGISSWLAWYQQKPGRAPKVLIYKASTLESGVPSRFSGSGSGTDFTLTISSLQPEDFATYYCQQSYSTPWTFGQGTKLEIKR
B13: I084A01 (scFv)
scFv: QVQLVQSGGGLVQPGGSLRLSCAASGFTFSSYEMNWVRQAPGKGLEWVSYISSSGSTTYYADSVKGRFTISRDNAKNSLYLQMNSLRAEDTAVYYCARDTTDYWGQGTMVTVSSGGGGSGGGGSGGGGSQSVLTQPPSASGTPGQRVTISCSGSSSNIGSNTVNWYQRLPGAAPQLLIYNNDQRPSGIPDRFSGSKSGTSGSLVISGLQSEDEADYYCASWDDSLNGRVFGGGTKLTVLG
B14: I083B12 (scFv)
scFv: QVQLVQSGAEVKKPGASVKVSCKASEYTFYNHYMHWVRQAPGQGLEWMGFINPSGDAAWYAQKFQGRVTLTRDTSTRTVYMELSGLTSEDTAVYYCARESGAGGYYYDDYWGKGTLVTVSSGGGGSGGGGSGGGGSALSYVLTQPPSVSVAPGKTASIPCGGNNIGSKSVQWYLQKAGQAPILVVYDDSDRPSGIPERFSGSNSGNTATLTITRVEAGDEADYYCQVWDSSSDHWFFGGGTKLTVLG
B15: I082B08 (scFv)
scFv: QVQLVQSGAEVKKPGGSVKVSCKASAYTFTRYYMHWVRQAPGQGLEWMGIINPSGGRTSYAQKFQGRVTMTRDTSTSTVYMELSSLRSEDTAVYYCARDLGIAGTIYFDYWGKGTLVTVSSGGGGSGGGGSGGGGSQSVLTQPPSVSAAPGQKVTISCSGSTSNIGNNYVSWYQQHPGKAPKLMIYDVSKRPSGVPDRFSGSKSGNSASLDISGLQSEDEADYYCAAWDDSLSEFLFGTGTKLTVLG
B16: I079B05 (scFv)
scFv: GVQLVESGGGLVKPGGSLRLSCATSGFRFSDYAMTWVRQAPGKGLEWVSSITGSGGGTHYAGSVRGRFTISRDNSKNTVYLQMNNLRPEDTAVYYCASFVLDYWGKGTLVTVSSGGGGSGGGGSGGGGSQSVLTQPASVSGSPGQSITISCTGTSSDVGGYNYVSWYQQHPGKAPKLMIYEGSKRPSGVSNRFSGSKSGNTASLTISGLQAEDEADYYCSSYTTRSTRVFGGGTKLTVLG
B17: I080D03 (scFv)
scFv: QVQLVQSGAELKQPGTSVKVSCKASGYSFSSYGVTWVRQAPGQGLEWMGWVSGNRGNTQYAQKFQDRVRMTTDTSTSTAYMELRSLRPDDTAVYFCARVGIKAAAVDNFEYWGRGTTVTVSSGGGGSGGGGSGGGGSAQSVLTQPPSASGTPGQRVTITCSGSSSNIGDYYVNWYQQVSGTTPKLIIYRDDQRPSGVPDRFSGSKSGASASLAISGLRSEDEANYFCAAWDDSLREFAFGTGTKVTVLG
B18: I080A03 (scFv)
scFv: QVQLQQSGAELKQPGTSVKVSCKASGYSFSCYDVNWVRQAPGQGLEWMGRINPNSGNTHYAQKFQDRVTMTTDTSTSTAYMELNSLRPDDTAVYFCARVGIKAAAVDNFEYWGRGTTVTVSSGGGGSGGGGSGGGGSAQSVLTQPPSASGTPGQRVTITCSGSSSNIGDYYVNWYQQVSGTTPKLIIYRDDQRPSGVPDRFSGSKSGASASLAISGLRSEDEANYFCAAWDDSLREFAFGTGTKVTVLG
B19: I083G03 (scFv)
scFv: B17 scFv with A92D

target: T1, HIS-tagged B Lymphocyte Stimulator (human, UniProt Q9Y275 71-285); experiment: BIAcore, periplasmic scFv over high density HIS-BLyS surface
T1 construct: Expressed in E. coli; also called HIS-B Lymphocyte Stimulator; histidine-tagged B Lymphocyte Stimulator; not shown: histidine tag from the pQE9 vector
T1 sequence (Q9Y275 71-285): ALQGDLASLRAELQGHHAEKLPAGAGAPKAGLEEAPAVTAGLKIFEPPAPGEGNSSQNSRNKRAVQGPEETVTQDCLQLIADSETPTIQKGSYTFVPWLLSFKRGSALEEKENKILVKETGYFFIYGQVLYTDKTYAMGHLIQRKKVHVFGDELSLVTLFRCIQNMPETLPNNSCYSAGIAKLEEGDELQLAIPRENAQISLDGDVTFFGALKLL
Experimental: All BIAcore analysis was performed on BIAcore 2000 machines, using the BIAcore 2000 control software and evaluated using the BIAevaluation 3.0 software. A high density His-tagged B Lymphocyte Stimulator surface (>1000 RU HIS-B Lymphocyte Stimulator coupled) was prepared in flow cell 2 by amine coupling to a CM5 chip. A new CM5 chip was inserted into the BIAcore and a sensorgram started over flow cell 2 with HBS buffer at a flow rate of 5 μl/min. The NHS and EDC solution were mixed 1:1 before injecting 30 μl over the CM5 surface. Fifty μl HIS-B Lymphocyte Stimulator (at 10 μg/ml in Sodium acetate buffer, pH4) was injected and allowed to couple to the surface. Thirty μl of ethanolamine-HCl solution was then injected to block free NHS esters. Prior to using the chip, 10 μl of 4M Guanidine hydrochloride in HBS was injected over the surface to strip the surface of non-covalently bound B Lymphocyte Stimulator. A blank surface (no HIS-B Lymphocyte Stimulator) was also prepared over flow cell 1 so that non-specific binding effects can be subtracted from the HIS-B Lymphocyte Stimulator binding curves.
The 96-well plate containing periplasmic scFvs was secured inside the BIAcore. Two ml of 4M Guanidine hydrochloride in HBS was placed in a rack inside the BIAcore for regeneration of the HIS-B Lymphocyte Stimulator surface between samples. The sensorgram was run over flow cells 1 and 2 at a flow rate of […].

| Binder | binding result |
| --- | --- |
| B1 | binds |
| B2 | binds |
| B3 | binds |
| B4 | binds |
| B5 | binds |
| B6 | binds |
| B7 | binds |
| B8 | binds |
| B9 | binds |
| B10 | binds |
| B11 | binds |
| B12 | binds |
| B13 | binds |
| B14 | binds |
| B15 | binds |
| B16 | binds |
| B17 | binds |
| B18 | binds |
| B19 | binds |
